Experiment [1] has as its target T1, EBV gp350 stably expressed on CHO cells (Epstein-Barr virus, UniProt P03200).
T1 construct: stably co-transfected with full-length pCAGGS-gp350/220 and pCI-puro vector; expressed in transfected cells; host or cells: CHO cells
As to the kind of experiment: Epitope mapping by competitive cell binding assay with biotinylated mAbs. The following applies: for % inhibition of biotinylated 54A1: 1 μg/ml biotinylated 54A1, 500 μg/ml unlabeled mAb; for % inhibition of biotinylated HB1: 1 μg/ml biotinylated HB1, 500 μg/ml unlabeled mAb; for % inhibition of biotinylated HB5: 1 μg/ml biotinylated HB5, 500 μg/ml unlabeled mAb; for % inhibition of biotinylated HB11: 1 μg/ml biotinylated HB11, 500 μg/ml unlabeled mAb; for % inhibition of biotinylated HB17: 1 μg/ml biotinylated HB17, 500 μg/ml unlabeled mAb; for % inhibition of biotinylated HB20: 1 μg/ml biotinylated HB20, 500 μg/ml unlabeled mAb; for % inhibition of biotinylated h72A1: 1 μg/ml biotinylated h72A1, 500 μg/ml unlabeled mAb; for % inhibition of biotinylated m72A1: cross-competition, 1 μg/ml biotinylated m72A1, 500 μg/ml unlabeled mAb; for % inhibition of biotinylated nAbs (biotinylated m72A1) / antigen binding competition with biotinylated m72A1 (in words): biotinylated m72A1 1 μg/ml; for competitive binding versus m72A1 and h72A1 (in words): biotinylated antibodies; for antigen binding competition with biotinylated m72A1 (in words): unlabeled mAbs 500-67.5 μg/ml. In short, it runs like this:
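CHO cells stably expressing gp350 preincubated 2 h with unlabeled competitor mAbs (500, 250, 125, 67.5 μg/ml), then 2 h with 1 μg/ml biotinylated mAb, detected by anti-biotin AF488 flow cytometry. % inhibition = 100−(% positive cells with competitor/% without)×100; anti-KSHV gH/gL 54A1 as non-specific control.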

Experiment [2] deals with EBV gp350 20-mer linear peptides (gp350 regions). In kind it is binding, Epstein-Barr virus. To be noted: 10 μg/ml mAb, 10 μg/ml peptide. The protocol: Forty-five sequential 20-mer linear peptides, covering the whole sequence of gp350 (GenBank: NC_007605.1), with an exception of aa 862-881, were synthesized using a solid phase method and cleaved using a low-high hydrogen fluoride method by the GenicBio, as previously described (58).
The binding of anti-gp350 mAbs to 45 synthesized 20-mer sequential peptides covering the total length of gp350 was analyzed using indirect ELISA as described (58). Briefly, immunoplates were coated with 50 μl of 10 μg/ml EBV gp350 peptides (forty-five 20-mers) diluted in PBS and incubated overnight at 4° C.; 0.5 μg/ml recombinant EBV gp350 ectodomain protein was used as a positive control. After washing three times with washing buffer (PBS containing 0.05% (v/v) Tween 20), plates were blocked with 100 μl washing buffer containing 3% BSA (blocking buffer), incubated for 1 hour at room temperature, and washed as above. Ten μg/ml purified mAbs were added to each well in triplicate and incubated for 2 hours at room temperature. […] The plates were washed as described above, followed by incubation with goat anti-mouse IgG or goat anti-human IgG HRP-conjugated secondary antibody (1:2,000 diluted in PBS) at room temperature for 1 hour. The plates were washed again and the chromogenic substrate ABTS was added. The reaction was stopped using ABTS peroxidase stop solution. The absorbance was read at an optical density of 405 nm using an ELISA plate reader.
The peptide library, consisting of 20-mer peptides, covered the entire gp350 protein, with the exception of AA 862-881 (Table 9).
Purified recombinant gp350 ectodomain was used as a control to validate the binding activity for all of the antibodies used. The overall gp350 sequence was divided into nine different regions consisting of ˜100 AA (FIG. 7).

The target of experiment [3] is T2, gp350 protein on gp350 expressing CHO cells (Epstein-Barr virus, UniProt P03200).
T2 construct: stably co-transfected with full-length pCAGGS-gp350/220 and pCI-puro vector; expressed in transfected cells; host or cells: CHO cells
T2 sequence (P03200 whole entry): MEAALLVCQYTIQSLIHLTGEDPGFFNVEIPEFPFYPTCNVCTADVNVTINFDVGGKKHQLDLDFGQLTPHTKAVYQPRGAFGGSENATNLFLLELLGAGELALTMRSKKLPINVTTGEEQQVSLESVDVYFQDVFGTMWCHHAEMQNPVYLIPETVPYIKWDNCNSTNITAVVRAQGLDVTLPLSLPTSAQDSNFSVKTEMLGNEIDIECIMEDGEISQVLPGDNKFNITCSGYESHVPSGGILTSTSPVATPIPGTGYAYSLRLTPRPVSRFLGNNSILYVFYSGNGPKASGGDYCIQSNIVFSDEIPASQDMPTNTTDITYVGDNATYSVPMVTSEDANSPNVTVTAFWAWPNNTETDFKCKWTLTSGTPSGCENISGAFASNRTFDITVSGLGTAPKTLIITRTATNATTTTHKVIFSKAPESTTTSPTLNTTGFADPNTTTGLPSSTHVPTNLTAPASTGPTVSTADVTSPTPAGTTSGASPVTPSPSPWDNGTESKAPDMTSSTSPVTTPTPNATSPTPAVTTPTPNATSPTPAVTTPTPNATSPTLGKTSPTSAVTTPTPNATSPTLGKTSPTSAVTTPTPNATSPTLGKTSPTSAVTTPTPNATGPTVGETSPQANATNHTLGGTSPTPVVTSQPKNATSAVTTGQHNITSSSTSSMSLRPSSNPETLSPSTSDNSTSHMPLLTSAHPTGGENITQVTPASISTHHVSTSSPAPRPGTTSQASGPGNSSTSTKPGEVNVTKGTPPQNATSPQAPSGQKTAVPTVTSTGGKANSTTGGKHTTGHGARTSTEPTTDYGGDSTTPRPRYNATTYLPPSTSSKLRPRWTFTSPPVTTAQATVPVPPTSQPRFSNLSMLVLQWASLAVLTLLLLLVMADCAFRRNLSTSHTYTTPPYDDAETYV
The experiment in a line: Flow cytometry of CHO cells stably expressing EBV gp350. In kind it is binding. The following applies: for type of gp350 epitope recognized (linear / conformational): concluded from flow cytometry and immunoblot. How it is done: To assess the ability of purified anti-gp350 mAb to detect surface expression of EBV gp350 protein by flow cytometry, CHO cells that stably express EBV gp350 were harvested and stained with purified anti-gp350 (10 μg/ml), followed by AF488 goat anti-mouse IgG secondary antibody. Flow cytometric analysis was performed on a C-6 FC (BD Biosciences) and data was analyzed using FlowJo Cytometry Analysis software (FlowJo, LLC) as described (47). All the experiments were independently repeated three times.
These novel antibodies were analyzed by flow cytometric analysis for surface expression of gp350 protein on 10^6 CHO cells transfected with 1 μg of pCAGGS-gp350. gp350 expressing cells were resuspended in PBS, stained with anti-gp350 mAb, which detects the gp350 ED, followed by secondary Ab goat anti-mouse conjugated to AF488. Additionally, western blot analysis was conducted on untransfected and pCAGGS-gp350 transfected CHO lysate. Anti-gp350 mAb 72A1 was used as a positive control (1:100) and anti-gp350 hybridoma clone supernatants were used at 1:50, and anti-mouse secondary antibody was used at 1:2000.
Flow cytometric analysis of gp350 and gH/gL specificity was performed. CHO wild type cells and gp350 or gH/gL-expressing CHO cells were stained with primary antibodies, followed by secondary goat anti-mouse or anti-human conjugated to AF488. Unstained cells and cells stained with secondary goat anti-mouse or anti-human conjugated to AF488 alone, were used as negative controls.
A general note: Flow cytometry measures light scatter and fluorescence of single cells or particles in a stream.

T1 sequence (P03200 whole entry): as above

B1: m72A1: EBV anti-gp350 neutralizing mouse antibody purified from HB168 hybridoma (ATCC); SEQ ID NO: 100 / 101 (antibody, V domains shown)
VH: PELVKPGTSMKISCKASGSSFTDYTMNWMKQSHGKNLEWIGLINPYNGGTRYNQKFKGKATLTLDKSSSTAYMEVLSLTSEDSAVYYCAGGLRRVNWFAYWGQGTLVSVSAAKTTPPSVYPLAPGSAAQTNSMVTLG
VL: QAVLTQESALTTSPGETVTLTCRSSTGAVTTSNYANWVQEKPDHLFTGLIGGTNNRVPGVPARFSGSLIGDKAALTITGAQTEDEAIYFCVLWHSNHWVFGGGTKLTVL
modifications: heavy chain mAb 72A1; light chain mAb 72A1
For B1, in experiment [1], the “% inhibition of biotinylated 54A1” value is listed as 1%, the “% inhibition of biotinylated HB1” value is 82%, the “% inhibition of biotinylated HB5” value was 97% and the “% inhibition of biotinylated HB11” value is reported as 90%. Moreover, in experiment [1], the “% inhibition of biotinylated HB17” value was 37%, the “% inhibition of biotinylated HB20” value came to 31%, the “% inhibition of biotinylated h72A1” value was 98% and the “% inhibition of biotinylated m72A1” value came out at 98%. Besides, in experiment [1] (unlabeled mAb 67.5 μg/ml), the “% inhibition of biotinylated nAbs (biotinylated m72A1)” value (“% inhibition of biotinylated nAbs” for short) was determined as 97%. Moreover, the “% inhibition of biotinylated nAbs” value in experiment [1] (unlabeled mAb 125 μg/ml) was determined as 94%. Further, the “% inhibition of biotinylated nAbs” value in experiment [1] (unlabeled mAb 250 μg/ml) turned out to be 93%. Further, the “% inhibition of biotinylated nAbs” value in experiment [1] (unlabeled mAb 500 μg/ml) worked out at 91%. Besides, the “binding to gp350 region AA 102-201 (linear peptides)” value (from here on “binding … (linear peptides)”) in experiment [2] is reported as “bound”.

B2: HB5: murine anti-EBV gp350 mAb, IgG2a κ; SEQ ID NO: 108 / 109; neutralizing (antibody, V domains shown)
VH: AELVRPGASVKISCKAFGYTFTNHNINWVKQRPGQGLDWIGYINPYNDYTSYNQKFKGKATLTVDKSSNTAYMELSSLTSEDSAVYYCARSEGWLRRGAWFAYWGQGTLVTVSAAKTTAPSVYPLAPVCGDTTGSSVTLG
VL: AILSVSPGERVSFSCRASQSIGTSIHWYQQRTNDSPRLLIKYASESISGIPPRFSGSGSGTDFTLSINSVESEDIADYHCQQSNSWPMLTFGAGTKLELKRADAAPTV
modifications: heavy chain mAb HB5; light chain mAb HB5
notes: murine anti-EBV gp350 mAb, IgG2a κ; neutralizing
As for B2, the “type of gp350 epitope recognized (linear / conformational)” value (from here on “type … (linear / conformational)”) in experiment [3] was “recognized both linear and conformational epitopes”. Moreover, in experiment [1], the “competitive binding versus m72A1 and h72A1 (in words)” value was “bound targets that overlapped with those of both m72A1 and h72A1”; the “antigen binding competition with biotinylated m72A1 (in words)” value (“antigen binding competition” for short) is listed as “Antigen binding competition was observed”. Moreover, the “binding … (linear peptides)” value in experiment [2] is on record as “bound”.

B3: HB20: murine anti-EBV gp350 mAb, IgG2a κ; SEQ ID NO: 128 / 129; neutralizing (antibody, V domains shown)
VH: ELVKPGASVKLSCKASGYTFTSYWIQWVKQRPGQGLEWIGEINPTNGHTNYNEKFKTKATLTVDKSSSTAYMRLSSLTSEDSAVYYCARNLYYYGRPDYWGQGTSVTVSSAKTTAPSVYPLAPVCGDTTGSSVTLG
VL: SSLSASLGDRVTISCRASQDIGNYLNWYQQKPDGTVKLLIYYTSRLHSGVPSRFSGSGSGTDYSLTISNLEQEDIATYFCQQGNALPPTFGGGTKLEIKRADAAPTV
modifications: heavy chain mAb HB20; light chain mAb HB20
notes: as for B2
Take B3: in experiment [3], the “type … (linear / conformational)” value is recorded as “only recognized conformational epitopes”. Also, in experiment [1], the “competitive binding versus m72A1 and h72A1 (in words)” value was “only partial binding to the overlapping targets”; the “antigen binding competition” value is recorded as “Antigen binding competition was observed”. Also, the “binding … (linear peptides)” value in experiment [2] is reported as “bound”.

B4: HB11: murine anti-EBV gp350 mAb, IgG1 κ; SEQ ID NO: 120 / 121; neutralizing (antibody, V domains shown)
VH: PSLVKPSQTLSLTCSVTGDSITSGFWNWIRKFPGNKLEYMGYISYSGSTYYNPSLKSRISITRDTSKNQYYLQLNSVTTEDTATYYCARGNGGNYDWYFDVWGAGTTVTVSSAKTTPPSVYPLAPGSAAQTNSMVTLG
VL: AIMSASLGEKVTMSCRASSSVNFMNWYQQKSDDSPKLLIYYISNLAPGVPARFSGSGSGNSYSLTISGMEGEDAATYYCQQFTSSPSWTFGGGTKLEIKRADAAPTV
modifications: heavy chain mAb HB11; light chain mAb HB11
notes: murine anti-EBV gp350 mAb, IgG1 κ; neutralizing
For B4, the “type … (linear / conformational)” value in experiment [3] is “recognized both linear and conformational epitopes”. Also, in experiment [1], the “competitive binding versus m72A1 and h72A1 (in words)” value is “bound targets that overlapped with those of both m72A1 and h72A1”; the “antigen binding competition” value is “Antigen binding competition was observed”. In addition, the “binding … (linear peptides)” value in experiment [2] is “bound”.

B5: h72A1: humanized 72A1 IgG1; heavy and light chain SEQ ID NOs: 180 and 181 (antibody, V domains shown)
VH: EVQLVESGGGLVQPGGSLRLSCAASGSSFTDYTMNWMRQSPGKGLEWIGLINPYNGGTRYADSVKGRATLSLDKSKNTAYLQMNSLRAEDTAIYYCAGGLRRVNWFAYWGQGTLVTVSS
VL: DAQLTQSPILLSASVGDRVTITCRSSTGAVTTSNYANWVQERTNGSFRGLIGGTNNRVPGVPSRFSGSLSGDDATLTISSLQPEDEADYFCVLWHSNHWVFGAGTKVEIKR
Consider B5, for which, in experiment [3] (CHO cells stably expressing gp350 on the surface, native/conformational epitopes), the “Flow cytometry (CHO Cells)” value is “recognized native epitopes of gp350 expressed on CHO cells surface, comparable to m72A1”. Moreover, in experiment [1], the “% inhibition of biotinylated 54A1” value was determined as 0%, the “% inhibition of biotinylated HB1” value is listed as 87%, the “% inhibition of biotinylated HB5” value turned out to be 97% and the “% inhibition of biotinylated HB11” value worked out at 79%. Further, in experiment [1], the “% inhibition of biotinylated HB17” value is on record as 31%, the “% inhibition of biotinylated HB20” value amounted to 26%, the “% inhibition of biotinylated h72A1” value was found to be 98% and the “antigen binding competition” value was “Antigen binding competition was observed”. For the same molecule, the “% inhibition of biotinylated m72A1” value in experiment [1] is given as 98%. In addition, the “% inhibition of biotinylated nAbs” value in experiment [1] (unlabeled mAb 67.5 μg/ml) stood at 89%. Moreover, in experiment [1] (unlabeled mAb 125 μg/ml), the “% inhibition of biotinylated nAbs” value is given as 93%. Further, the “% inhibition of biotinylated nAbs” value in experiment [1] (unlabeled mAb 250 μg/ml) is given as 95%. Moreover, in experiment [1] (unlabeled mAb 500 μg/ml), the “% inhibition of biotinylated nAbs” value is recorded as 98%. Besides, the “binding … (linear peptides)” value in experiment [2] is “bound”.
